Assay results as given in the RNAGym collection of RNA variant scans (doi:10.1021/acssynbio.7b00057).

B1: Pistol ribozyme (parent)
chain: GGGUCGUUGUUCCAUAAUCGCGUGGAUAUGGCACGCAAGUUUCUACCGGGCACCGUAAAUGUCCGACUGGAGCCGUUCGGGCGGCUAUAAACAGACCUCAGGCCCGAAGCGUGGCGGCACCUGCCGCCGGUGGUAAAAAAGAUCGGAAGAGCACACGUCU

Variants of: B1
Assay: aptazyme ON/OFF ratio, guanine; higher = stronger switching; co-transcriptional cleavage with and without guanine

Variant	aptazyme ON/OFF ratio
U8G G9A U10C U11G C12U	1.29
U8G G9A U10C U11G C12G	1.45
U8G G9A U10C U11G C12A	1.06
U8G G9A U10G U11C C12G C13G	1.25
U8G G9A U10G U11C C12G C13U	1.4
U8G G9A U10G U11C C12G C13A	1.27
U8G G9A U11G C12G C13A	1.27
U8G G9A U11G C12G C13G	1.57
U8G G9A U11G C12G C13U	1.23
U8G G9A U10G U11A C12A C13G	1.27
U8G G9A U10G U11A C12A C13A	1.29
U8G G9A U10G U11A C12A C13U	1.48
U8G G9A U11A C12U C13U	1.27
U8G G9A U11A C12U C13A	1.24
U8G G9A U11A C12U C13G	1.18
U8G G9A U10C U11C C12A C13U	1.07
U8G G9A U10C U11C C12A C13G	1.12
U8G G9A U10C U11C C12A C13A	1.05
U8G G9A U10C C12U C13A	1.14
U8G G9A U10C C12U C13G	1.08
U8G G9A U10C C12U C13U	1.11
U8G G9A U11G C12A C13G	1.2
U8G G9A U11G C12A C13A	1.16
U8G G9A U11G C12A C13U	1.24

Variant	aptazyme ON/OFF ratio
U8G G9A U10C U11A C12A C13A	1.15
U8G G9A U10C U11A C12A C13G	1.11
U8G G9A U10C U11A C12A C13U	1.16
U8G G9A U10C U11G	1.34
U8G G9A U10C U11C	1.03
U8G G9A U10C U11A	1.37
U8G G9A U10G C12A	1.44
U8G G9A U10G C12U	1.39
U8G G9A U10G C12G	1.34
U8G G9A U10G U11G C12G C13U	1.37
U8G G9A U10G U11G C12G C13G	1.44
U8G G9A U10G U11G C12G C13A	1.19
U8G G9A U10C U11G C12G C13A	1.34
U8G G9A U10C U11G C12G C13G	1.42
U8G G9A U10C U11G C12G C13U	1.14
U8G G9A U10G U11A C12G C13U	1.24
U8G G9A U10G U11A C12G C13A	1.21
U8G G9A U10G U11A C12G C13G	1.03
U8G G9A U10G U11A C13G	1.21
U8G G9A U10G U11A C13U	1.14
U8G G9A U10G U11A C13A	1.14
U8G G9A U10C U11G C12A C13G	1.18
U8G G9A U10C U11G C12A C13U	1.16
U8G G9A U10C U11G C12A C13A	1.18

Variant	aptazyme ON/OFF ratio
U8G G9A U11C C13G	1.01
U8G G9A U11C C13A	1.07
U8G G9A U11C C13U	1.06
U8G G9A U10G U11C C12A	1.19
U8G G9A U10G U11C C12U	1.02
U8G G9A U10G U11C C12G	1.19
U8G G9A U10C U11A C12A	1.22
U8G G9A U10C U11A C12G	1.14
U8G G9A U10C U11A C12U	1.1
U8G G9A U10C C12G C13A	1.21
U8G G9A U10C C12G C13G	1.2
U8G G9A U10C C12G C13U	1.33
U8G G9A U10C C12A C13U	1.17
U8G G9A U10C C12A C13G	1.09
U8G G9A U10C U11G C12U C13U	1.21
U8G G9A U10C U11G C12U C13G	1.18
U8G G9A U10C U11G C12U C13A	1.34
U8G G9A U11A C12U	1.43
U8G G9A U11A C12G	1.17
U8G G9A U11A C12A	1.33
U8G G9A U10G C12U C13G	1.16
U8G G9A U10G C12U C13U	1.18
U8G G9A U10G C12U C13A	1.32
U8G G9A U11C C12A C13A	1.34

Variant	aptazyme ON/OFF ratio
U8G G9A U11C C12A C13G	1.16
U8G G9A U11C C12A C13U	1.3
U8G G9A U10G C12A C13G	1.18
U8G G9A U10G C12A C13A	1.29
U8G G9A U10G C12A C13U	1.45
U8G G9A U10G U11G C12G	1.33
U8G G9A U10G U11G C12U	1.12
U8G G9A U10G U11G C12A	1.32
U8G G9A U10C U11C C12U C13G	1.04
U8G G9A U10C U11C C12U C13A	1.04
U8G G9A U10C U11C C12U C13U	1.03
U8G G9A U10C U11A C13U	1.08
U8G G9A U10C U11A C13A	1.1
U8G G9A U10C U11A C13G	1.06
U8G G9A U10C U11G C13A	1.11
U8G G9A U10C U11G C13G	1.16
U8G G9A U10C U11G C13U	1.09
U8G G9A U11C C12U C13A	1.25
U8G G9A U11C C12U C13G	1.27
U8G G9A U11C C12U C13U	1.13
U8G G9A U10C U11C C12G C13U	1.05
U8G G9A U10C U11C C12G C13A	1.09
U8G G9A U10C U11C C12G C13G	1.1
U8G G9A U10G U11C	1.05

Variant	aptazyme ON/OFF ratio
U8G G9A U10G U11G	1.59
U8G G9A U10G U11A	1.05
U8G G9A U10C U11A C12U C13G	1.05
U8G G9A U10C U11A C12U C13A	1.04
U8G G9A U10C U11A C12U C13U	1.05
U8G G9A U10G	2.04
U8G G9A U10C U11C C13U	1.03
U8G G9A U10C U11C C13G	1.03
U8G G9A U10C U11C C13A	0.984
U8G G9A U10C U11C C12G	1.05
U8G G9A U10C U11C C12A	1.08
U8G G9A U10C U11C C12U	1.02
U8G G9A U11G C12A	1.08
U8G G9A U11G C12U	1.34
U8G G9A U11G C12G	1.23
U8G G9A U11A C13A	1.14
U8G G9A U11A C13G	1.07
U8G G9A U11A C13U	1.23
U8G G9A U10G U11G C13A	1.56
U8G G9A U10G U11G C13G	1.15
U8G G9A U10G U11G C13U	1.45
U8G G9A U10G C13U	1.58
U8G G9A U10G C13A	0.997
U8G G9A U10G C13G	1.34

Variant	aptazyme ON/OFF ratio
U8G G9A U11A C12G C13G	1.17
U8G G9A U11A C12G C13U	1.26
U8G G9A U11A C12G C13A	1.08
U8G G9A U10C C12U	1.14
U8G G9A U10C C12G	1.2
U8G G9A U10G U11A C12U	1.35
U8G G9A U10G U11A C12A	1.34
U8G G9A U10G U11A C12G	1.6
U8G G9A U10G U11G C12A C13A	1.57
U8G G9A U10G U11G C12A C13U	1.41
U8G G9A U10G U11G C12A C13G	1.16
U8G G9A U10G U11G C12U C13U	1.29
U8G G9A U10G U11G C12U C13A	1.36
U8G G9A U10G U11G C12U C13G	1.46
U8G G9A U10C C13G	1.03
U8G G9A U10C C13A	1.04
U8G G9A U10C C13U	1.07
U8G G9A U10C U11A C12G C13G	1.07
U8G G9A U10C U11A C12G C13A	1.16
U8G G9A U10C U11A C12G C13U	1.15
U8G G9A U10G C12G C13A	1.52
U8G G9A U10G C12G C13G	1.16
U8G G9A U10G C12G C13U	1.27
U8G G9A U10G U11C C13A	1.06

Variant	aptazyme ON/OFF ratio
U8G G9A U10G U11C C13G	1.05
U8G G9A U10G U11C C13U	1.05
U8G G9A U10G U11C C12A C13G	1.16
U8G G9A U10G U11C C12A C13U	1.18
U8G G9A U10G U11C C12A C13A	1.18
U8G G9A U11A	1.59
U8G G9A U11G	1.18
U8G G9A U11C	1.05
U8G G9A U10G U11C C12U C13G	1.2
U8G G9A U10G U11C C12U C13U	1.06
U8G G9A U10G U11C C12U C13A	1.06
U8G G9A U11C C12A	1.34
U8G G9A U11C C12G	1.25
U8G G9A U11C C12U	1.07
U8G G9A U11A C12A C13G	1.25
U8G G9A U11A C12A C13U	1.15
U8G G9A U11A C12A C13A	1.19
U8G G9A U10G U11A C12U C13G	1.33
U8G G9A U10G U11A C12U C13A	1.34
U8G G9A U10G U11A C12U C13U	1.47
U8G G9A U11C C12G C13U	1.4
U8G G9A U11C C12G C13G	1.18
U8G G9A U11C C12G C13A	1.17
